Results on one molecule are retold here after US10323078B2, “Isolated peptides and fragments thereof from fibrinogen for use as drugs, particularly in skin inflammatory diseases” (Universite Paris Descartes, priority 2015, dated 2019).

In experiment [1] the test system is Pfg. The experiment in a line: Western ligand blot with biotinylated Pfg. The format is binding, Propionibacterium acnes. The settings on record: 10 μg per lane, 10% SDS-PAGE; biotinylated Pfg 0.1 μg/ml. As to the method: (§1) FIG. 5: Binding of P. acnes surface proteins to fibrinogen. (A) Various quantities of human fibrinogen (hFg) and bovine fibrinogen (bFg) were immobilized onto a 96-well polystyrene plate at 4° C. for 18 h and incubated with biotinylated Pfg at 0.1 μg/ml for 2 h at 23° C. Bovine serum albumin (BSA) was used as negative control. Bound material was detected by using the HRP-streptavidin conjugate. Peroxidase activity was measured by using the ABTS substrate at 405 nm. Proteins (10 μg per lane) were separated by 10% SDS-PAGE and detected by (B) Commassie blue staining, and transferred to nitrocellulose membrane and incubated with (C) HRP-streptavidine alone, and (D) biotinylated Pfg (0.1 μg/ml). Lanes 1: molecular weight standards. Lane 2: BSA. Lane 3: hFg. Lane 4: bFg.
FIG. 8: Cloning of Bß human fibrinogen fragments and binding with Pfg. (A) Cloning and expression of recombinant human Bß fibrinogen fragments Fg1, Fg2, Fg3 and Fg4. Fibrinogen fragments were obtained by RT-PCR and expression plasmids were constructed as described in Materials and Methods. (B) GST-fused proteins were expressed in E. coli, fractionated by 12.5% SDS-PAGE, and detected by Coomassie blue staining (B), and incubated with biotinylated Pfg (0.1 μg/ml) as described in Materials and Methods (C).
To characterize the interaction between P. acnes and ligands, we used biotinylated molecules in quantitative and qualitative assays. In a first set of assays, ECM ligands (fibrinogen, collagens I, IV, VI and VIII) were used as labelled proteins with biotin. In a second set of assays, P. acnes surface proteins (total extract and purified Pfg) were biotinylated. For quantitative analysis, unlabeled protein were diluted into 50 mM carbonate-bicarbonate, pH 9.6 buffer to yield a protein concentration ranging from 0.01 to 50 μg/ml, and then immobilized to 96-well polystyrene plates at 4° C. overnight. The wells were rinsed three times with 0.2 ml of PBS containing 0.05% Tween-20 (PBS-Tween). Biotinylated proteins (0.01 to 16 μg/ml in PBS-Tween) were added to the wells and incubated at room temperature for 1 h. The wells were rinsed three times with 0.2 ml of PBS-Tween. Peroxidase conjugated to streptavidin (0.5 μg/ml in PBS-Tween) was added and incubated for 30 min at room temperature. After washing, bound peroxidase was detected using the chromogenic peroxidase substrate ABTS. For qualitative analysis, unlabelled protein (10-75 μg per lane) were separated by SDS-PAGE and then transferred to nitrocellulose membranes (0.45 μm pore size), as described previously (Towbin, 1979). Membranes were then saturated overnight at 4° C. in PBS containing 5% BSA, 0.05% Tween-20 (PBT buffer). Binding activity was detected by incubating the membranes with 20 ml of PBT containing biotinylated proteins (0.1 μg/ml) for 2 h at room temperature followed by three washes with PBT. Bound biotinylated proteins were detected by incubating the membrane with peroxidase conjugated to streptavidin (0.5 μg/ml in PBT) for 1 h at room temperature. After washing, bound peroxidase activity was detected using 3,3′-diaminobenzidine in the presence of CoCl2 and H2O2 (Harlow and Lane, 1988).
Since it was shown that Pfg is recognized by fibrinogen, this ECM ligand was used to analyze the nature of this interaction. First it was analyzed the ability of fibrinogen to be recognized by purified Pfg (FIG. 5). Human and bovine Fg (hFg, bFg) were immobilized to polysterene plate and the binding activity of biotinylated Pfg was measured. […] It has been shown that fibrinogen is a glycoprotein containing both N- and O-linked glycans (Debeire 1985; Reid Townsend 1982; L'Hôte 1996). […] In parallel, deglycosylation was assessed by visualization of a shift in the mobility after electrophoresis separation and Coomassie blue staining (FIG. 6A, lanes 3 and 5) and also by using the RCA-I plant lectin able to recognize ß-linked galactosyl residues in terminal position (FIG. 6C) (Green, 1987). […]

In experiment [2] the test system is Pfg. Nature of the experiment: Binding of biotinylated Pfg to immobilized fibrinogen (polystyrene plate). Further details: species or system Propionibacterium acnes. The settings on record: various quantities of fibrinogen immobilized; biotinylated Pfg 0.1 μg/ml, 2 h at 23° C. How it is done: as §1, with “Lane 3: hFg. Lane 4: bFg.” left out
To characterize the interaction between P. acnes and ligands, we used biotinylated molecules in quantitative and qualitative assays. […] For quantitative analysis, unlabeled protein were diluted into 50 mM carbonate-bicarbonate, pH 9.6 buffer to yield a protein concentration ranging from 0.01 to 50 μg/ml, and then immobilized to 96-well polystyrene plates at 4° C. overnight. […] After washing, bound peroxidase was detected using the chromogenic peroxidase substrate ABTS. […] Binding activity was detected by incubating the membranes with 20 ml of PBT containing biotinylated proteins (0.1 μg/ml) for 2 h at room temperature followed by three washes with PBT. […]

Experiment [3] relates to P. acnes 6919 strain. Nature of the experiment: Adhesion assay, biotinylated P. acnes binding to HaCaT keratinocytes. The format is cell-based, Propionibacterium acnes. The settings on record: P. acnes 6919 pre-treated with whole fibrinogen 0.01 to 0.5 mM, 1 h at 37° C. As to the method: FIG. 12: Dose-dependent inhibition of P. acnes binding to keratinocytes. Biotinylated P. acnes 6919 strain at concentrations adjusted to 0.1 of absorbance at 600 nm was pre-treated with whole human (dark gray bar) and bovine (light gray bar) fibrinogen at the concentrations ranging from 0.01 to 0.5 mM and incubated 1 h at 37° C. with the human HaCaT keratinocyte cell line. After removal of unbound bacteria, adhesion activity was detected at 410 nm. Data are means±S.D. of three separate experiments. Statistical significance is indicated by * (P<0.05), ** (P<0.01), *** (P<0.001), and **** (P<0.0001), respectively.
The bacterial suspension was adjusted at 600 nm to the desired concentration, pretreated with peptides Fg1 and Fg2 at the final concentration ranging from 0.87 to 7 μM for 1 h at 37° C. and deposited on the previously saturated cells with a solution of PBS SVF 2% for 2 h. After incubation for 1 h at 37° C., unbound bacteria are removed by 3 washes with PBS and fixed bacteria are detected by a streptavidin-peroxidase solution of 0.5 μg/ml for 30 min.
Whole P. acnes bacteria are labelled by biotinylation, pre-treated or not with the peptides and contacted with the various cell lines. After removal of the unfixed bacteria, the adhesion activity was measured spectrophotometrically by using the streptavidin-peroxidase conjugate and a chromogenic substrate. […]

B1: bovine fibrinogen: purified commercial bovine fibrinogen (Sigma) (protein)
chain 1: EDGSDPPSGDFLTEGGGVRGPRLVERQQSACKETGWPFCSDEDWNTKCPSGCRMKGLIDEVDQDFTSRINKLRDSLFNYQKNSKDSNTLTKNIVELMRGDFAKANNNDNTFKQISEDLRSRIEILRRKVIEQVQRIKVLQKNVRDQLVDMKRLEVDIDIKIRSCKGSCSRALEHKVDLEDYKNQQKQLEQVIAINLLPSRDIQYLPLIKMSTITGPVPREFKSQLQEAPLEWKALLEMQQTKMVLETFGGDGHARGDSVSQGTGLAPGSPRKPGTSSIGNVNPGSYGPGSSGTWNPGRPEPGSAGTWNPGRPEPGSAGTWNPGRPEPGSAGTWNPGRPEPGSAGTWNPGRPEPGSAGTWNTGSSGSSSFRPDSSGHGNIRPSSPDWGTFREEGSVSSGTKQEFHTGKLVTTKGDKELLIDNEKVTSGHTTTTRRSCSKVITKTVTNADGRTETTKEVVKSEDGSDCGDADFDWHHTFPSRGNLDDFFHRDKDDFFTRSSHEFDGRTGLAPEFAALGESGSSSSKTSTHSKQFVSSSTTVNRGGSAIESKHFKMEDEAESLEDLGFKGAHGTQKGHTKARPARGIHTSPLGEPSLTP
chain 2: QFPTDYDEGQDDRPKVGLGARGHRPYDKKKEEAPSLRPVPPPISGGGYRARPATATVGQKKVERKPPDADGCLHADPDLGVLCPTGCKLQDTLVRQERPIRKSIEDLRNTVDSVSRTSSSTFQYITLLKNMWKGRQNQVQDNENVVNEYSSHLEKHQLYIDETVKNNIPTKLRVLRSILENLRSKIQKLESDVSTQMEYCRTPCTVTCNIPVVSGKECEKIIRNEGETSEMYLIQPEDSSKPYRVYCDMKTEKGGWTVIQNRQDGSVDFGRKWDPYKQGFGNIATNAEGKKYCGVPGEYWLGNDRISQLTNMGPTKLLIEMEDWKGDKVTALYEGFTVQNEANKYQLSVSKYKGTAGNALIEGASQLVGENRTMTIHNSMFFSTYDRDNDGWKTTDPRKQCSKEDGGGWWYNRCHAANPNGRYYWGGAYTWDMAKHGTDDGVVWMNWQGSWYSMKKMSMKIRPYFPEQ
chain 3: YVATRDNCCILDERFGSYCPTTCGIADFLNNYQTSVDKDLRTLEGILYQVENKTSEARELVKAIQISYNPDQPSKPNNIESATKNSKSMMEEIMKYETLISTHESTIRFLQEVYNSNSQKIVNLRDKVVQLEANCQEPCQDTVKIHDVTGRDCQDVANKGAKESGLYFIRPLKAKQFLVYCEIDGSGNGWTVFQKRLDGSLDFKKNWIQYKEGFGHLSPTGTGNTEFWLGNEKIHLISTQSSIPYVLRIQLEDWNGRTSTADYASFKVTGENDKYRLTYAYFIGGDAGDAFDGYDFGDDSSDKFFTSHNGMQFSTWDSDNDKYDGNCAEQVGIGWWMNKCHAGHLNGVYYQGGTYSKTSTPNGYDNGIIWATWKSRWYSMKKTTMKIIPLNRLAIGEGQQHQLGGAKQVGVEHHVEIEYD
As to B1, the “Recognition by biotinylated Pfg after electrophoretic separation of fibrinogen” value in experiment [1] is recorded as “recognized by Pfg”. For the same molecule, in experiment [2], the “Binding of biotinylated Pfg to immobilized fibrinogen” value is listed as “dose-dependent”. Besides, in experiment [3], the “Inhibition of adhesion of P. acnes to keratinocytes” value is recorded as “able to inhibit the adhesion”.
